These results are taken from PMC3010076 (The Journal of Cell Biology, 2010).

The data set concerns the molecule itself. The experiment in a line: rotary-shadowing EM.

B1: C-terminally TAP-tagged full-length Myo1 (natural protein, S. cerevisiae, UniProt P08964 1-1928, looked up)
chain: MTGGQSCSSNMIVWIPDEKEVFVKGELMSTDINKNKFTGQEEQIGIVHPLDSTEVSNLVQVRISDVFPVNPSTFDKVENMSELTHLNEPSVLYNLEKRYDCDLIYTYSGLFLVAINPYHNLNLYSEDHINLYHNKHNRLSKSRLDENSHEKLPPHIFAIAEEAYENLLSEGKDQSILVTGESGAGKTENTKKILQYLASITSGSPSNIAPVSGSSIVESFEMKILQSNPILESFGNAQTVRNNNSSRFGKFIKIEFNEHGMINGAHIEWYLLEKSRIVHQNSKERNYHIFYQLLSGLDDSELKNLRLKSRNVKDYKILSNSNQDIIPGINDVENFKELLSALNIIGFSKDQIRWIFQVVAIILLIGNIEFVSDRAEQASFKNDVSAICSNLGVDEKDFQTAILRPRSKAGKEWVSQSKNSQQAKFILNALSRNLYERLFGYIVDMINKNLDHGSATLNYIGLLDIAGFEIFENNSFEQLCINYTNEKLQQFFNNHMFVLEQSEYLKENIQWDYIDYGKDLQLTIDLIESKGPPTGVLPLLDEEAVLPKSTDESFYSKLISTWDQNSSKFKRSRLKNGFILKHYAGDVEYTVEGWLSKNKDPLNDNLLSLLSSSQNDIISKLFQPEGEKSSSAGVEANISNQEVKKSARTSTFKTTSSRHREQQITLLNQLASTHPHFVRCIIPNNVKKVKTFNRRLILDQLRCNGVLEGIRLAREGYPNRIAFQEFFQRYRILYPENSTTTTFSSKLKASTKQNCEFLLTSLQLDTKVYKIGNTKLFFKAGVLADLEKQKDVKLNNIMIKLTATIRGYTVRKEITYHLQKLKKTRVIGNTFRLYNRLVKEDPWFNLFIRIKPLLTSSNDMTRTKKFNEQINKLKNDLQEMESKKKFLEEKNQKTVNELENTQDLLNQEKENLRKNESLLNRVKTSSETLQKQFDDLVSEKDEISREKLEVAQNLEEAHQKIQGLQETIREREATLEKLHSKNNELIKQISDLNCDISKEQSSQSLIKESKLKLENEIKRLKDVINSKEEEIKSFNDKLSSSEEDLDIKLVTLEKNCNIAMSRLQSLVTENSDLRSKNENFKKEKAALNNQLKNKESELLKMKEKIDNHKKELATFSKQRDDAVSEHGKITAELKETRIQLTEYKSNYQKIKEEYSNFQRETKEQEQKKRNSLVESLNDSKIKELEARLSQEISLNQYLNKRISGNSVETNISSTRRSTSYSDDPLDKEDIIKKYYDLQLAFTEITRNLENEIEEKKNLISRLRFTETRLASSSFEDQKIKAQMKKLKKLIQDMDPSIPLDSILNEPLDNCPDKESDINKLMLEVDYLKRQLDIETRAHYDAENAISALHSKFRKIQGESSLSSSDIYKLKFEASEERVKSLEDKLKTMPLRDRTNLPVGDIIKNRDSISKYEEEIRYYKLENYKLQEILNESNGKLSQLTLDLRQSKSKEALLSEQLDRLQKDLESTERQKELLSSTIKQQKQQFENCMDDLQGNELRLREHIHALKQAEEDVKNMASIIEKLKTQNKQKEKLIWEREMERNDSDMQLQETLLELKRVQDVKKILSDDLAHLKERLSAVEDRSQYTDEINRLKEELNCSLKAETNLKKEFATLKYKLETSTNDSEAKISDLLKQLDHYTKVVEMLNNEKDAISLAEKELYQKYEALNTECESLKGKIVSLTKIKQELESDLNQKTDALQISNAALSSSTQKNKEITEKIKYLEETLQLQMEQNSRNGELVKTLQASCNGYKDKFDDEKQKNIDLYEENQTLQKLNTDLQLQLKNLHERLSDTTEKNAWLSKIHELENMVSLETDLKYEEMKKNKSLERAVEELQTKNSQQTDVIELANKNRSEFEEATLKYEAQISDLEKYISQQELEMKKSIRDNSSYRDKVQEMAQEIEFWKSRYESTMIGSKNIDSNNAQSKIFS
For orientation: stoichiometry N means a count of units in the complex or per binding partner. Regarding B1, the “stoichiometry N” value turned out to be 2.

B2: C-terminally TAP-tagged Myo1 with a deletion of the TD2 region (natural protein, S. cerevisiae, UniProt P08964 1-1928, looked up)
chain: MTGGQSCSSNMIVWIPDEKEVFVKGELMSTDINKNKFTGQEEQIGIVHPLDSTEVSNLVQVRISDVFPVNPSTFDKVENMSELTHLNEPSVLYNLEKRYDCDLIYTYSGLFLVAINPYHNLNLYSEDHINLYHNKHNRLSKSRLDENSHEKLPPHIFAIAEEAYENLLSEGKDQSILVTGESGAGKTENTKKILQYLASITSGSPSNIAPVSGSSIVESFEMKILQSNPILESFGNAQTVRNNNSSRFGKFIKIEFNEHGMINGAHIEWYLLEKSRIVHQNSKERNYHIFYQLLSGLDDSELKNLRLKSRNVKDYKILSNSNQDIIPGINDVENFKELLSALNIIGFSKDQIRWIFQVVAIILLIGNIEFVSDRAEQASFKNDVSAICSNLGVDEKDFQTAILRPRSKAGKEWVSQSKNSQQAKFILNALSRNLYERLFGYIVDMINKNLDHGSATLNYIGLLDIAGFEIFENNSFEQLCINYTNEKLQQFFNNHMFVLEQSEYLKENIQWDYIDYGKDLQLTIDLIESKGPPTGVLPLLDEEAVLPKSTDESFYSKLISTWDQNSSKFKRSRLKNGFILKHYAGDVEYTVEGWLSKNKDPLNDNLLSLLSSSQNDIISKLFQPEGEKSSSAGVEANISNQEVKKSARTSTFKTTSSRHREQQITLLNQLASTHPHFVRCIIPNNVKKVKTFNRRLILDQLRCNGVLEGIRLAREGYPNRIAFQEFFQRYRILYPENSTTTTFSSKLKASTKQNCEFLLTSLQLDTKVYKIGNTKLFFKAGVLADLEKQKDVKLNNIMIKLTATIRGYTVRKEITYHLQKLKKTRVIGNTFRLYNRLVKEDPWFNLFIRIKPLLTSSNDMTRTKKFNEQINKLKNDLQEMESKKKFLEEKNQKTVNELENTQDLLNQEKENLRKNESLLNRVKTSSETLQKQFDDLVSEKDEISREKLEVAQNLEEAHQKIQGLQETIREREATLEKLHSKNNELIKQISDLNCDISKEQSSQSLIKESKLKLENEIKRLKDVINSKEEEIKSFNDKLSSSEEDLDIKLVTLEKNCNIAMSRLQSLVTENSDLRSKNENFKKEKAALNNQLKNKESELLKMKEKIDNHKKELATFSKQRDDAVSEHGKITAELKETRIQLTEYKSNYQKIKEEYSNFQRETKEQEQKKRNSLVESLNDSKIKELEARLSQEISLNQYLNKRISGNSVETNISSTRRSTSYSDDVGDIIKNRDSISKYEEEIRYYKLENYKLQEILNESNGKLSQLTLDLRQSKSKEALLSEQLDRLQKDLESTERQKELLSSTIKQQKQQFENCMDDLQGNELRLREHIHALKQAEEDVKNMASIIEKLKTQNKQKEKLIWEREMERNDSDMQLQETLLELKRVQDVKKILSDDLAHLKERLSAVEDRSQYTDEINRLKEELNCSLKAETNLKKEFATLKYKLETSTNDSEAKISDLLKQLDHYTKVVEMLNNEKDAISLAEKELYQKYEALNTECESLKGKIVSLTKIKQELESDLNQKTDALQISNAALSSSTQKNKEITEKIKYLEETLQLQMEQNSRNGELVKTLQASCNGYKDKFDDEKQKNIDLYEENQTLQKLNTDLQLQLKNLHERLSDTTEKNAWLSKIHELENMVSLETDLKYEEMKKNKSLERAVEELQTKNSQQTDVIELANKNRSEFEEATLKYEAQISDLEKYISQQELEMKKSIRDNSSYRDKVQEMAQEIEFWKSRYESTMIGSKNIDSNNAQSKIFS
With B2, the “stoichiometry N” value is 2.

B3: MBP-Myo1-tail-TD2Δ (domain or fragment, S. cerevisiae, UniProt P08964 856-1928, looked up)
chain: SSNDMTRTKKFNEQINKLKNDLQEMESKKKFLEEKNQKTVNELENTQDLLNQEKENLRKNESLLNRVKTSSETLQKQFDDLVSEKDEISREKLEVAQNLEEAHQKIQGLQETIREREATLEKLHSKNNELIKQISDLNCDISKEQSSQSLIKESKLKLENEIKRLKDVINSKEEEIKSFNDKLSSSEEDLDIKLVTLEKNCNIAMSRLQSLVTENSDLRSKNENFKKEKAALNNQLKNKESELLKMKEKIDNHKKELATFSKQRDDAVSEHGKITAELKETRIQLTEYKSNYQKIKEEYSNFQRETKEQEQKKRNSLVESLNDSKIKELEARLSQEISLNQYLNKRISGNSVETNISSTRRSTSYSDDVGDIIKNRDSISKYEEEIRYYKLENYKLQEILNESNGKLSQLTLDLRQSKSKEALLSEQLDRLQKDLESTERQKELLSSTIKQQKQQFENCMDDLQGNELRLREHIHALKQAEEDVKNMASIIEKLKTQNKQKEKLIWEREMERNDSDMQLQETLLELKRVQDVKKILSDDLAHLKERLSAVEDRSQYTDEINRLKEELNCSLKAETNLKKEFATLKYKLETSTNDSEAKISDLLKQLDHYTKVVEMLNNEKDAISLAEKELYQKYEALNTECESLKGKIVSLTKIKQELESDLNQKTDALQISNAALSSSTQKNKEITEKIKYLEETLQLQMEQNSRNGELVKTLQASCNGYKDKFDDEKQKNIDLYEENQTLQKLNTDLQLQLKNLHERLSDTTEKNAWLSKIHELENMVSLETDLKYEEMKKNKSLERAVEELQTKNSQQTDVIELANKNRSEFEEATLKYEAQISDLEKYISQQELEMKKSIRDNSSYRDKVQEMAQEIEFWKSRYESTMIGSKNIDSNNAQSKIFS
With B3, the “stoichiometry N” value was found to be 2.
